Experimental data reported in article PMC7276988, “Cryo-EM Structure of the Fork Protection Complex Bound to CMG at a Replication Fork” (Molecular Cell, 2020).

T1: Tof1 (S. cerevisiae, UniProt P53840 1-1238, phosphorylated (sites not given))
T1 construct: Tof1, S. cerevisiae; residues 13-781 are resolved in the map; The Tof1 chain of m2; source: S. cerevisiae, overexpressed with Csm3, purified as Csm3/Tof1; in XL-MS part of the co-expressed, co-purified complex (yJY74)
T1 sequence: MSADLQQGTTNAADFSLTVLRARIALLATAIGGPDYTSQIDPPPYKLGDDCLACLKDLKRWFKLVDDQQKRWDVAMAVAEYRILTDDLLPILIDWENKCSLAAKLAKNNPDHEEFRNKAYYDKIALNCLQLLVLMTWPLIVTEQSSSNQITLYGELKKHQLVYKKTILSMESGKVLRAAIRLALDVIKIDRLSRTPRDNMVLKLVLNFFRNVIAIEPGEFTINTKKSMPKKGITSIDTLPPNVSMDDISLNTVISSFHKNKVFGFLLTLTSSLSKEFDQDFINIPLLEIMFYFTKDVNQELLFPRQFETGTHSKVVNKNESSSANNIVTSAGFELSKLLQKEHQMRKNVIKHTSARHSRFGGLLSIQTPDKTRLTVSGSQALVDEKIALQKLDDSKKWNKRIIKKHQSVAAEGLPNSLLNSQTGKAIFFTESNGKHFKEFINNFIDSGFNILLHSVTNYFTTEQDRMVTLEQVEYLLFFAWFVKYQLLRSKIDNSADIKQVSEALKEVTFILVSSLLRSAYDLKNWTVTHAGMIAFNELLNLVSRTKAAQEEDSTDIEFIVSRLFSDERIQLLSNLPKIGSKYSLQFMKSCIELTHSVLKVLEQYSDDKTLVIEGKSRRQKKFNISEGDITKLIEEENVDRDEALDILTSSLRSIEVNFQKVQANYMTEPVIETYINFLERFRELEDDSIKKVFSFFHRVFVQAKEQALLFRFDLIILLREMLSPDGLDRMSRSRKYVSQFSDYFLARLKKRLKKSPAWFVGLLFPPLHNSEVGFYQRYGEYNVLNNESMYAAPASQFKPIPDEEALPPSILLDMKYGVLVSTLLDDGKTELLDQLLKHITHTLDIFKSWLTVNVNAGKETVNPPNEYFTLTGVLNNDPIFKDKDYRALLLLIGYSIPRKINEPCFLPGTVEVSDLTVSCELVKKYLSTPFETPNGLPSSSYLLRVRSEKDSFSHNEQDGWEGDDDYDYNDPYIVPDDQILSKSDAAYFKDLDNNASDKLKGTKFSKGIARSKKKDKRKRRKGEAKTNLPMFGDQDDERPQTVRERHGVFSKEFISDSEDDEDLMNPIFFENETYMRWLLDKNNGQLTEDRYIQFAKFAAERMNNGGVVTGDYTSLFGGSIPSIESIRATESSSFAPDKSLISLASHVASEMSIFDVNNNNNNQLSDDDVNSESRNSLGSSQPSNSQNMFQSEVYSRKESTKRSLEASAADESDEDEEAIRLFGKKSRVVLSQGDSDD

B1: Mcm7 (natural protein, S. cerevisiae)
chain: MSAALPSIQLPVDYNNLFNEITDFLVTFKQDTLSSDATRNENEDENLDAENIEQHLLEKGPKYMAMLQKVANRELNSVIIDLDDILQYQNEKFLQGTQADDLVSAIQQNANHFTELFCRAIDNNMPLPTKEIDYKDDVLDVILNQRRLRNERMLSDRTNEIRSENLMDTTMDPPSSMNDALREVVEDETELFPPNLTRRYFLYFKPLSQNCARRYRKKAISSKPLSVRQIKGDFLGQLITVRGIITRVSDVKPAVEVIAYTCDQCGYEVFQEVNSRTFTPLSECTSEECSQNQTKGQLFMSTRASKFSAFQECKIQELSQQVPVGHIPRSLNIHVNGTLVRSLSPGDIVDVTGIFLPAPYTGFKALKAGLLTETYLEAQFVRQHKKKFASFSLTSDVEERVMELITSGDVYNRLAKSIAPEIYGNLDVKKALLLLLVGGVDKRVGDGMKIRGDINVCLMGDPGVAKSQLLKAICKISPRGVYTTGKGSSGVGLTAAVMKDPVTDEMILEGGALVLADNGICCIDEFDKMDESDRTAIHEVMEQQTISISKAGINTTLNARTSILAAANPLYGRYNPRLSPLDNINLPAALLSRFDILFLMLDIPSRDDDEKLAEHVTYVHMHNKQPDLDFTPVEPSKMREYIAYAKTKRPVMSEAVNDYVVQAYIRLRQDSKREMDSKFSFGQATPRTLLGIIRLSQALAKLRLADMVDIDDVEEALRLVRVSKESLYQETNKSKEDESPTTKIFTIIKKMLQETGKNTLSYENIVKTVRLRGFTMLQLSNCIQEYSYLNVWHLINEGNTLKFVDDGTMDTDQEDSLVSTPKLAPQTTASANVSAQDSDIDLQDA
notes: Mcm7, S. cerevisiae, subunit of CMG; source: S. cerevisiae, overexpressed, purified as part of CMG
B2: Csm3 (natural protein, S. cerevisiae)
chain: MDQDFDSLLLGFNDSDSVQKDPTVPNGLDGSVVDPTIADPTAITARKRRPQVKLTAEKLLSDKGLPYVLKNAHKRIRISSKKNSYDNLSNIIQFYQLWAHELFPKAKFKDFMKICQTVGKTDPVLREYRVSLFRDEMGMSFDVGTRETGQDLERQSPMVEEHVTSAEERPIVADSFAQDKRNVNNVDYDNDEDDDIYHLSYRNRRGRVLDERGNNETVLNNVVPPKEDLDALLKTFRVQGPVGLEENEKKLLLGWLDAHRKMEKGSMTEEDVQLIQSLEEWEMNDIEGQHTHYDLLPGGDEFGVDQDELDAMKEMGF
notes: Csm3, S. cerevisiae; residues 46-139 are resolved in the map; The Csm3 chain of m2; source: S. cerevisiae, overexpressed with Tof1, purified as Csm3/Tof1; in XL-MS part of the co-expressed, co-purified complex (yJY74)
B3: Ctf4 (natural protein, S. cerevisiae)
chain: MVSVIDKLVFDFGGKTLVSLAPDNNTLCVANKNGLTKILKTNNPEEEPETLDSSKLVSSIKCYSNSHFLMTTMQGDALRYNIDSSQEELLARFALPLRDCCVIHSGKMAVFGGDDLELILLELDDETHKKHAIKIDEQVSQISYNSQMNILAVSMINGKVQIFSLTSTIPNKVHELNDYIVANSYDDTHRDKILSNMMDDIDKDNDNDLSETADPDENNVADPEFCAANRICTRVAWHPKGLHFALPCADDTVKIFSIKGYSLQKTLSTNLSSTKAHFIDLQFDPLRGTYIAAVDLNNKLTVWNWETSEIHYTREFKRKITNIAWKIQADSKTLDLVLGTWSGSIAIVQNLAESVVSNIPDQSVAESSTKHGLFVDSESDLENLEGNDDINKSDKLFSDITQEANAEDVFTQTHDGPSGLSEKRKYNFEDEEDFIDDDDGAGYISGKKPHNEHSYSRVHKTHSFPISLANTGKFRYMPFSPAGTPFGFTDRRYLTMNEVGYVSTVKNSEQYSITVSFFDVGRFREYHFEDLFGYDLCFLNEKGTLFGQSKTGQIQYRPHDSIHSNWTKIIPLQAGERITSVAATPVRVIVGTSLGYFRSFNQFGVPFAVEKTSPIVALTAQNYRVFSVHYSQFHGLSYSLSELGTSSKRYYKRECPLPMSLPNINSDMKKDANLDYYNFNPMGIKSLFFSSYGDPCIFGSDNTLLLLSKWRSPEESKWLPILDSNMEIWKMSGGKETTDIHVWPLALAYDTLNCILVKGKHIWPEFPLPLPSEMEIRMPVFVKSKLLEENKAILNKKNEIGADTEAEEGEEDKEIQIPVSMAAEEEYLRSKVLSELLTDTLENDGEMYGNENEVLAALNGAYDKALLRLFASACSDQNVEKALSLAHELKQDRALTAAVKISERAELPSLVKKINNIREARYEQQLK
notes: Ctf4, S. cerevisiae; only the C-terminal part is resolved in the map; Homotrimer; also called Ctf4 trimer; Ctf4_(3); source: purified as previously described (Yeeles et al., 2015); also co-expressed with CMG, Csm3/Tof1 and Mrc1 in S. cerevisiae yJY74 and co-purified

Tests used:
Assay in all cases: cryo-EM structure; reconstituted from purified CMG, fork DNA, Csm3/Tof1, Ctf4, Mrc1 with AMP-PNP; glycerol gradient fixation (glutaraldehyde and BS3)
Tof1 = molecular target: T1, Tof1; conditions: both partners purified
Mcm7 = molecular target: B1; conditions: both partners purified
[1] = molecular target: the molecule itself

Binder: B1
binding result (Tof1): binds

Binder: B2
binding result (Mcm7): binds

Binder: B3
stoichiometry N [1]: 3
